The values below come from patent US20230032737A1 (University of Pennsylvania, published 2023).

For the test, the target named is T1, purified human factor D (from human plasma) (human, UniProt P00746 26-253).
T1 construct: mature; Also used here for the native factor D of normal human serum in the functional assays; also called human fD; fD
Put plainly: SPR (Biacore-2000), purified human factor D amine-coupled to CM4 chip. As to the method: FIG. 8 depicts the results of antigen binding affinity measurements for 1F10-5 mAb using Biacore. Purified human factor D was coupled onto CM4 chip using the amine coupling method. Biacore analysis was performed on a Biacore-2000 instrument. The chip was regenerated between each binding using 50 mM NaOH.

T1 sequence (P00746 26-253): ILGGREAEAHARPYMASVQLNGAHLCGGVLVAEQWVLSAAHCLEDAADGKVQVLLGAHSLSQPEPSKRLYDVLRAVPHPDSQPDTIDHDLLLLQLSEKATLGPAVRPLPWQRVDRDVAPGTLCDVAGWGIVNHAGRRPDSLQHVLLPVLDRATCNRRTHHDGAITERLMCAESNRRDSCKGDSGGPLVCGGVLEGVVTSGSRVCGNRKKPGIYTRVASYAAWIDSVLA

B1: mAb 1F10-5 (murine anti-human factor D monoclonal antibody) (antibody, V domains shown)
VH: QIQLVQSGPELKKPGETVKISCKASGYTFTNFEMNWVKQAPGQGLNWMGCINTYTGDPIYADDFRGRFAFSLETSASTAYLQINNLKNEDMATYFCSREGGGDYWGQGTTLTVSS
VL: SIVMTQTPKFLLVSAGDRVTITCKASQSVTNDVAWYQQKPGQSPRLLIYHASNRYTGVPERFTGSGYGTDFTFTINTVQAEDLAVYFCQQDYSSPRTFGGGTKLEIKR
notes: Mouse hybridoma antibody; also called 1F10-mAb; IF10-5
In turn, B1 returned a Kd of 0.15 nM.
